Data from paper PMC3413154.
Residue numbers refer to the chain shown, from its start.

What was measured:
Assay in all cases: EMSA
[1] = target: T1, A1 (full length, mature);L2 RNA-editing ligase (full length, mature) (Trypanosoma brucei;Trypanosoma brucei, UniProt Q95W15;P86925 196-762;21-416, |)
T1 sequence 1: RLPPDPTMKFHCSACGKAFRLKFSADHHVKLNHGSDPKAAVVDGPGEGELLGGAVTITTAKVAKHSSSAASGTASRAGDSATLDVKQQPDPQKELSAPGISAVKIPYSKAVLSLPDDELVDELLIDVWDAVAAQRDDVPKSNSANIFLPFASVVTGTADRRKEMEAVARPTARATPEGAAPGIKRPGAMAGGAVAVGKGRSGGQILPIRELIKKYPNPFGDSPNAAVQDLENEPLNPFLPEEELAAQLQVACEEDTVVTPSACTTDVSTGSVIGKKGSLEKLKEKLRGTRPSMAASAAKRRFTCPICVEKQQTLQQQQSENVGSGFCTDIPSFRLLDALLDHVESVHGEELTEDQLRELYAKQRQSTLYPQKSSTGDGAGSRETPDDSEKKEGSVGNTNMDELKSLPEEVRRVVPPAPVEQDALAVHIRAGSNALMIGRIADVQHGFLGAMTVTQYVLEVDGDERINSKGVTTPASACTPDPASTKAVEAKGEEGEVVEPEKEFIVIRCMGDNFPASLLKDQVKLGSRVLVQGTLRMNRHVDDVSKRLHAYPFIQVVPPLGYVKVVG
T1 sequence 2: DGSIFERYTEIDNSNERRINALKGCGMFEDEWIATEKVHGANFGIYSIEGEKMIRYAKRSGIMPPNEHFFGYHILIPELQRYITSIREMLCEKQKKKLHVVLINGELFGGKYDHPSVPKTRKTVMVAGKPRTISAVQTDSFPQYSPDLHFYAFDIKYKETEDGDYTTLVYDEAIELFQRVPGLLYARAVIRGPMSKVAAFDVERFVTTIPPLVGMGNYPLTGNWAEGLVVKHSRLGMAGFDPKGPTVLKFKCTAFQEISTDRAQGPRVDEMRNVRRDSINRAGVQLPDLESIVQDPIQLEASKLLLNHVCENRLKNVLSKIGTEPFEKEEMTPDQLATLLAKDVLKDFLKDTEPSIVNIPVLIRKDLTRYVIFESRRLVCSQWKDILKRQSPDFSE

[2] = target: T2, A1 L2BD;L2 RNA-editing ligase (full length, mature) (Trypanosoma brucei;Trypanosoma brucei, UniProt Q95W15;P86925 196-331;21-416, |)
T2 sequence 1: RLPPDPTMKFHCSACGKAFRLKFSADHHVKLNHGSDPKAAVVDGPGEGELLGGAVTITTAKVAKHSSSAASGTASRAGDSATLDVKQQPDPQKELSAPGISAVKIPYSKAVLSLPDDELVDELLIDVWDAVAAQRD
T2 sequence 2: T1 sequence 2

[3] = target: T3, A1 (full length, mature);L2 A1BD (Trypanosoma brucei;Trypanosoma brucei, UniProt Q95W15;P86925 196-762;308-416, |)
T3 sequence 1: T1 sequence 1
T3 sequence 2: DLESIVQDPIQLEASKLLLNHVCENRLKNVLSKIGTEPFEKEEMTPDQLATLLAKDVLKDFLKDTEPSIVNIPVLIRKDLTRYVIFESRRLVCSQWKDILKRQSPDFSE

[4] = target: T4, A1 R734E;L2 RNA-editing ligase (full length, mature) (Trypanosoma brucei;Trypanosoma brucei, UniProt Q95W15;P86925 196-762;21-416, R734E|)
T4 sequence 1: T1 sequence 1 with R539E
T4 sequence 2: T1 sequence 2

[5] = target: T5, A1Δ (L23 deletion);L2 RNA-editing ligase (full length, mature) (Trypanosoma brucei;Trypanosoma brucei, UniProt Q95W15;P86925 196-657+=GASG+696-762;21-416, internal_change|)
T5 sequence 1: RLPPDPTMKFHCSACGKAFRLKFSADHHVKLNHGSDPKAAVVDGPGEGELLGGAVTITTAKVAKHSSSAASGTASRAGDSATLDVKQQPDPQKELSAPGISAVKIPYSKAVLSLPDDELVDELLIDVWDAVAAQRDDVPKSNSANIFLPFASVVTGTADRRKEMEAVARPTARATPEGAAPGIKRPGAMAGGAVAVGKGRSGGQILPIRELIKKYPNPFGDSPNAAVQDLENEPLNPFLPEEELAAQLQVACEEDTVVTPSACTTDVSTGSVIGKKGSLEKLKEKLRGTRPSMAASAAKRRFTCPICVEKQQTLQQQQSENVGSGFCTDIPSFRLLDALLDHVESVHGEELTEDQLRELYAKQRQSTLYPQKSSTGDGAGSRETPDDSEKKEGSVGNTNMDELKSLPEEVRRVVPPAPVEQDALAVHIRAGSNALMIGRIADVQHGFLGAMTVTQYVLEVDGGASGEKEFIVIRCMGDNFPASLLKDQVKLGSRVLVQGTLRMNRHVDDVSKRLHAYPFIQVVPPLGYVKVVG
T5 sequence 2: T1 sequence 2

[6] = target: T6, A1 R731E;L2 RNA-editing ligase (full length, mature) (Trypanosoma brucei;Trypanosoma brucei, UniProt Q95W15;P86925 196-762;21-416, R731E|)
T6 sequence 1: T1 sequence 1 with R536E
T6 sequence 2: T1 sequence 2

[7] = target: T7, A1 R703E;L2 RNA-editing ligase (full length, mature) (Trypanosoma brucei;Trypanosoma brucei, UniProt Q95W15;P86925 196-762;21-416, R703E|)
T7 sequence 1: T1 sequence 1 with R508E
T7 sequence 2: T1 sequence 2

L2 NTase domain = target: T8, L2 NTase domain (Trypanosoma brucei, UniProt P86925 21-285)
T8 sequence: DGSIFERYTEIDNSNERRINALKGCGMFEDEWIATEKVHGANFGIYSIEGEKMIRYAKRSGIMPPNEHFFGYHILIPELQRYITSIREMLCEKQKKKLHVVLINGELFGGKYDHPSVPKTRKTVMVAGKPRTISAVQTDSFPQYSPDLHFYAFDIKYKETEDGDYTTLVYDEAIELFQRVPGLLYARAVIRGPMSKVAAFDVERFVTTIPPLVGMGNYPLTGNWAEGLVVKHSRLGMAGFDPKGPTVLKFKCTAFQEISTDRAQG

B1: 26-mer nicked dsRNA (dsRNA)
RNA 1: AUGAGACGUAGGUU
RNA 2: UUAUCGGAGUUC
RNA 3: GAACUCCGAUAAAACCUACGUCUCAU
What does the source list for B1?
binding result [1]: binds; binding result [2]: no binding; binding result [3]: no binding; binding result [4]: no binding; binding result [5]: binds; binding result [6]: no binding; binding result [7]: no binding; binding result (L2 NTase domain): no binding
